Measurements taken from patent US20190142905A1 (UREKA SARL, published 2019).
Square brackets hold non-standard residues; d marks the D form. Ends that are not written are not given here. A^u = urea residue with alanine side chain

How the values were obtained:
Assay in all cases: cell-based or functional assay
[1] = molecular target: T1, mouse GLP-1 receptor endogenously expressed in βTC6 cells (mouse, UniProt O35659 22-463)
T1 sequence (looked up): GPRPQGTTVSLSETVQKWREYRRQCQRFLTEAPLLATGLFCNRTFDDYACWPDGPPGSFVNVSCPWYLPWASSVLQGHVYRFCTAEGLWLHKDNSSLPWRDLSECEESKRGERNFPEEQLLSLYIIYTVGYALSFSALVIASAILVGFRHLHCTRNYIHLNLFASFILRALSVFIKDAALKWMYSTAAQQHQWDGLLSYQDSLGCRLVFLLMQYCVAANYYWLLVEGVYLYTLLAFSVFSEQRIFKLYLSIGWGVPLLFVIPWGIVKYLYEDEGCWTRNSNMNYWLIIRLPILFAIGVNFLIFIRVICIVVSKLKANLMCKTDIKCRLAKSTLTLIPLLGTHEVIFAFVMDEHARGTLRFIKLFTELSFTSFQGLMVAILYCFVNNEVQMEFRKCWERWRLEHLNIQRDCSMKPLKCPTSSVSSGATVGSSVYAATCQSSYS

[2] = molecular target: T1, mouse GLP-1 receptor endogenously …; remark: listed apart in the source
[3] = molecular target: human glucagon receptor expressed in transfected CHO cells (human, UniProt P47871 26-477)

| Binder | EC50, GLP-1 Functional Assay (cAMP production, HTRF) [1] | % bioactivity of reference (reference compound 1) [2] | EC50, Glucagon Functional Assay (cAMP production, HTRF) [3] |
| --- | --- | --- | --- |
| HAEGTFTSDVSSYLEGQAAKEFIAWLXKGRG (A^u at position 27 (urea residue with alanine side chain)) [Compound 7] | 0.22 nM |  |  |
| XAEGTFTSDVSSYLEGQAAKEFIAWLVKGRG (H^u at position 1 (urea residue with histidine side chain)) [Compound 12] | 280 nM |  |  |
| HAEGTFTSDVSSYLEGQAAKEFIAWLVKXRG (G^u at position 29 (urea residue with glycine side chain)) [Compound 25] | 0.074 nM |  |  |
| HAEGTFTSDVSSYLEGQAAKEFIAWLVKGRX (G^u at position 31 (urea residue with glycine side chain)) [Compound 27] | 0.081 nM |  |  |
| HAEGTFTSDVSSYLEGQAAKEFIXWLVKGRG (A^u at position 24 (urea residue with alanine side chain)) [Compound 2] | 1.5 nM |  |  |
| HAEGTFTSDVSSYXEGQAAKEFIAWLVKGRG (Y^u at position 14 (urea residue with tyrosine side chain)) [Compound 44] | 0.048 nM | 150% |  |
| HAEGTFTSDVSSYLEGQXAKEFIAWLVKGRG (A^u at position 18 (urea residue with alanine side chain)) [Compound 45] | 0.036 nM | 200% |  |
| H[A^u]EGTFTSDL[A^u]KQLEEEAVRLFIEWLKNGGPSSGAPPSKKKKKK [Compound 73] | 0.34 nM |  |  |
| HSQGTFTSDYSKYLDSRRAQDFVQXLXNT (A^u at position 25 (urea residue with alanine side chain); Nle (norleucine) at position 27) [Compound 57] |  |  | 22 nM |
| HSQGTFTSDYSKYLDSRRAQDFVQWXXNT (A^u at position 26 (urea residue with alanine side chain); Nle (norleucine) at position 27) [Compound 58] |  |  | 35 nM |
| HSQGTFTSDYSKYLDSRRAQDFVQWLXXT (Nle (norleucine) at position 27; A^u at position 28 (urea residue with alanine side chain)) [Compound 35] |  |  | 0.44 nM |
| HSQGTFTSDYSKYLDSRRAQDFVQWLXNX (Nle (norleucine) at position 27; A^u at position 29 (urea residue with alanine side chain)) [Compound 36] |  |  | 0.026 nM |
| HAEGTFTSDVSSYLEGQAAKEFIAXLVKGRG (A^u at position 25 (urea residue with alanine side chain)) [Compound 3] | 0.46 nM |  |  |
| HSQGTFTSDYSKYXDSRRAQDFVQWLXNT (A^u at position 14 (urea residue with alanine side chain); Nle (norleucine) at position 27) [Compound 51] |  |  | 68 nM |
| HSQGTFTSDYSKYLDXRRAQDFVQWLXNT (A^u at position 16 (urea residue with alanine side chain); Nle (norleucine) at position 27) [Compound 52] |  |  | 34 nM |
| HSQGTFTSDYSKYLDSXRAQDFVQWLXNT (A^u at position 17 (urea residue with alanine side chain); Nle (norleucine) at position 27) [Compound 53] |  |  | 0.67 nM |
| HSQGTFTSDYSKYLDSRRAQDFXQWLXNT (A^u at position 23 (urea residue with alanine side chain); Nle (norleucine) at position 27) [Compound 55] |  |  | 34 nM |
| HXEGTFTSDVSSYLEGQAAKEFIAWLVKGRG (A^c at position 2 (N,N'-linked carbomyl / carbamate residue with alanine side chain)) [Compound 43] |  | 9% |  |
| HAEGTFTSDVSSYLEGQAAKEFIAWLVXGRG (K^u at position 28 (urea residue with lysine side chain)) [Compound 46] |  | 157% |  |
| HAEGTFTSDVSSYLEGQAAKEFIAXLVKGRG (W^u at position 25 (urea residue with tryptophan side chain)) [Compound 4] | 0.26 nM |  |  |
| HAEGTFTSDVSSYLEGQAAKEFIAWXVKGRG (A^u at position 26 (urea residue with alanine side chain)) [Compound 5] | 0.42 nM |  |  |
